# The supplement of paper PMC10126150
# ± gives the standard deviation of the averaged measurements.
# Test system: ATP
# Experiment: switch fluorescence ratio, 500 uM ATP over buffer (Cy3 cluster intensity, sum of 5 cycles each) (fold (ratio)); higher = stronger signal-on switching upon ATP binding; sequences stand for … in TCGTCGGCAGCGTCAGATGTGTATAAGAGACAGTTTTTTTTTTTTTTTTTTTTTTTTT…TC
# Conditions: aptamer strand: ATP DNA aptamer (quencher-CACCTGGGGGAGTATTGCGGAGGAAGG + anchor), 100 nM annealed; ATP concentration: 500 uM
# In short: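 Exposure to 500 uM ATP lasted 15 min at 22 °C before imaging, and a selection-buffer image was taken beforehand, for Cy3-labelled switching-strand clusters on a modified Illumina MiSeq flow-cell annealed to 100 nM quencher-labelled ATP aptamer. Five buffer/ATP cycles were run with NaOH stripping and re-annealing between them. The fluorescence ratio per cluster is summed target-cycle over summed buffer-cycle Cy3 intensity, averaged per switch-domain sequence. Clusters outside 100-1000 RFU were excluded.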
row,Sequence,switch fluorescence ratio
1,ATACGGATGG,0.984 ± 0.033
2,GGATTACTAA,0.99 ± 0.029
3,TTATAGATAG,0.999 ± 0.018
4,TTAGAAAGAA,0.976 ± 0.013
5,ACTAAAATAT,1.021 ± 0.0093
6,AGATATCTA,0.985 ± 0.023
7,ATAAACCTAA,1.05 ± 0.024
8,TGGATTTAGA,1.02 ± 0.017
9,AGTGGGATAA,1.11 ± 0.099
10,TCTTAGAGGT,0.983 ± 0.026
11,GGGGTTTACA,0.989 ± 0.026
12,TCCGGAGGGA,1.04 ± 0.089
13,AAAGGACACA,1.061 ± 0.01
14,TAGTTAATTT,1.01 ± 0.034
15,ATTTGAGAGC,0.987 ± 0.017
16,GGGAATTTGC,1 ± 0.036
17,GAGGAGACGT,1.03 ± 0.019
18,AGGGCAGCGT,1.004 ± 0.0041
19,AGTAATTTTT,1 ± 0.018
20,GCTATCATGG,0.9727 ± 0.0076
21,GATGGAGGTG,0.997 ± 0.011
22,TAATGCCAGG,1.088 ± 0.0038
23,TGGGATTGTA,0.987 ± 0.024
24,GGGGCAATTT,1.04 ± 0.052
25,AGTATGCATA,0.951 ± 0.016

row,Sequence,switch fluorescence ratio
1,ACGCAGGCTT,1.05 ± 0.011
2,AGTGGAGGGC,1.03 ± 0.036
3,AATGTAAAGT,1.001 ± 0.0047
4,TTTTTACATT,0.99 ± 0.032
5,ATGAAGGGTT,1 ± 0.029
6,GATCCAGGAG,1.11 ± 0.047
7,GACTAACGGA,1.19 ± 0.1
8,TAGGGGGAAA,1.01 ± 0.024
9,CCTGTAGGCC,0.998 ± 0.027
10,ATTTAGGTTT,1.01 ± 0.012
11,TCATAAGTGA,0.9848 ± 0.0083
12,AAGATAGGTT,1.02 ± 0.057
13,TAATCTTTGG,0.961 ± 0.035
14,AGGTATGGTC,0.995 ± 0.031
15,GTTTAGAAAG,1.01 ± 0.017
16,TGGACTCGGA,1.03 ± 0.071
17,TCAAATTATG,1.01 ± 0.035
18,TAAATTTTTT,0.996 ± 0.032
19,GAGGTAAGGT,1 ± 0.015
20,CTGAGATCAG,1.01 ± 0.026
21,TTGTGGATAA,1.01 ± 0.0094
22,CCTTCTGCCG,1.203 ± 0.0042
23,GTTTAGTATT,0.999 ± 0.019
24,GCATTAGGTA,0.984 ± 0.024
25,GACGGGGAAT,0.979 ± 0.01

row,Sequence,switch fluorescence ratio
1,CAGGCGTCGT,1.035 ± 0.0023
2,TGAATCGGGA,0.99 ± 0.011
3,GGGGTGGGTA,0.998 ± 0.028
4,GGTCGGGGGG,1.03 ± 0.037
5,TTTTCCAGGG,1.22 ± 0.18
6,TGGAACTATA,1.02 ± 0.018
7,TTACATATAG,1.04 ± 0.015
8,CGTGGGCGGT,0.9807 ± 0.0031
9,CTCAGGGGAG,1.03 ± 0.047
10,TTTCGTTGTA,0.973 ± 0.001
11,CCATCGTAAC,2.28 ± 0.37
12,GGGACTTAGC,1.02 ± 0.022
13,TTCAGTAGAG,1.03 ± 0.024
14,TTCATAGTTC,0.986 ± 0.013
15,CGGAGAATAG,1.234 ± 0.012
16,GAAGATTTCT,0.976 ± 0.03
17,GAGCAATTTT,2.31 ± 0.15
18,AGGGTCGCGT,0.989 ± 0.034
19,ATAATGGTGT,1.03 ± 0.029
20,GTGTTACTGT,0.959 ± 0.026
21,TTTAAAGTTG,1.05 ± 0.04
22,GGTCTGGGAG,1 ± 0.023
23,GCTCTGTGGG,0.967 ± 0.024
24,AATTTTGTTT,0.991 ± 0.035
25,GCGTTTCGGG,0.968 ± 0.018

row,Sequence,switch fluorescence ratio
1,GTGATTACTG,0.97 ± 0.011
2,AAGTTGGAGT,1.02 ± 0.027
3,TGAGTGCCGG,1.18 ± 0.25
4,GGCATAGAAT,1.001 ± 0.0012
5,CGGGGGTGTT,0.998 ± 0.023
6,AAGGCATGCA,1.01 ± 0.032
7,ATACACATAG,1.04 ± 0.014
8,TCTCATGTAG,1.018 ± 0.009
9,TCCTTCGGTT,1.393 ± 0.0023
10,AAGTTATGCT,1 ± 0.014
11,ACCGTGTATG,1.01 ± 0.027
12,AAGGAATTAA,1.07 ± 0.12
13,AGAGGAATTC,1 ± 0.013
14,AATGTCTCTC,0.998 ± 0.058
15,AAGAAATGGT,1.05 ± 0.043
16,CGGGGGCCCT,1.01 ± 0.034
17,TAGGGTCGGG,0.9466 ± 0.0037
18,GGAAAGATTG,0.991 ± 0.041
19,TTAAAGGATC,0.968 ± 0.028
20,TTTCACAGCT,1.03 ± 0.041
21,GGGTAGCGCT,0.969 ± 0.039
22,GAAGTCGGAT,0.979 ± 0.019
23,CCGGAGGGGG,1.05 ± 0.02
24,TATTGAGCTG,0.9775 ± 0.0087
25,TGTGTGTGGA,1.04 ± 0.03

row,Sequence,switch fluorescence ratio
1,GATGCTACTG,1.04 ± 0.016
2,GGGAAAGGGT,1 ± 0.014
3,GCTGTAGGGC,1.015 ± 0.0034
4,ATTTCAAAAG,0.974 ± 0.023
5,ATGGGTTGTG,1 ± 0.03
6,TTTTTCGGG,0.996 ± 0.014
7,GGTGTGTGCT,0.989 ± 0.049
8,TTTAGGGTCA,0.962 ± 0.062
9,GGGGTCATTT,0.979 ± 0.027
10,TGATGGGCGC,1.026 ± 0.0036
11,AAGGGTAGAT,1.01 ± 0.038
12,ATGTGGGAGG,1 ± 0.016
13,TATTTGTTGC,1.03 ± 0.041
14,TAATATGGGT,0.988 ± 0.023
15,AAGGGGATTA,0.99 ± 0.033
16,TTTACTGGTG,1.13 ± 0.012
17,TGTCGGAGGT,1.02 ± 0.05
18,CGCTTGGTAC,3.39 ± 0.079
19,TTCTCCTTTT,1.01 ± 0.021
20,ACTTGGGGCC,0.971 ± 0.012
21,TGGTTGGT,0.9755 ± 0.0095
22,TGATTGGTCA,0.967 ± 0.012
23,ATTTTGTTAG,0.998 ± 0.011
24,TTCCGTCTTC,1.09 ± 0.11
25,AGTGCCCAGG,2.4 ± 1.6

row,Sequence,switch fluorescence ratio
1,GGGCAGGCAC,0.993 ± 0.018
2,ATGCCGAAGG,0.985 ± 0.054
3,GTTTGCACTG,1.04 ± 0.021
4,GGAGCAGGGA,0.963 ± 0.025
5,TAGTGGATGG,1 ± 0.029
6,GTTCAAAAGG,0.919 ± 0.028
7,TAGGTGCATA,1.03 ± 0.043
8,CTTCACACGT,1.016 ± 0.01
9,AAATTTTTAG,1.02 ± 0.018
10,TTTGAAGGTA,1.01 ± 0.025
11,GCCTAATGGT,0.993 ± 0.016
12,CTTAAATCTG,0.974 ± 0.084
13,AAGAAGCAGG,1.06 ± 0.037
14,CTTTGGTGTT,1.01 ± 0.017
15,GGGTTGACGC,1.01 ± 0.013
16,CATTTTTGAT,1.01 ± 0.02
17,GTATTAAGGG,1.02 ± 0.035
18,CGGGATCTGT,1.01 ± 0.024
19,TCTGGTATGA,1.01 ± 0.015
20,TTTCCCAAAA,1.04 ± 0.08
21,ATGATGGGCT,0.9654 ± 0.0059
22,GGGTCCATTC,1.01 ± 0.02
23,TTTCTTGGGA,1 ± 0.059
24,GGGTAGACTG,0.955 ± 0.03
25,AGTTAAGGGT,0.9925 ± 0.0071

row,Sequence,switch fluorescence ratio
1,TTTTCAGTGT,0.996 ± 0.029
2,TCAGGGGGAG,1.02 ± 0.054
3,ACGTTGTTTT,0.984 ± 0.011
4,TCCTTATAGG,1 ± 0.044
5,CCTTTTTTTT,1.01 ± 0.011
6,AGCGATAGTT,1.1 ± 0.038
7,GCCATTGGGG,0.9872 ± 0.0012
8,TTTGACGCAT,1.6 ± 0.67
9,GTGGTACGTA,1.02 ± 0.06
10,GTGGGAGGTT,0.948 ± 0.036
11,ATGGTTCGCG,1 ± 0.015
12,CGTATAATGT,0.996 ± 0.015
13,AGTTAGAAAT,1.02 ± 0.03
14,TGCGCTGTA,1.02 ± 0.018
15,TCGAGGGGAA,1.13 ± 0.15
16,CTAGTTTTTG,0.997 ± 0.049
17,GGGGGCAACG,1.03 ± 0.1
18,GTGGAATAAT,0.981 ± 0.015
19,GCTCCAATCG,1.13 ± 0.049
20,CTAAGGTGTT,1.325 ± 0.011
21,ACAGGTTTTT,1.01 ± 0.023
22,AGACTCTTGA,1 ± 0.0083
23,TCTTTTTTGG,1 ± 0.042
24,TTTCGATGTT,0.95 ± 0.051
25,GGTTGTTGTT,0.978 ± 0.029

row,Sequence,switch fluorescence ratio
1,AGGAATGACT,1 ± 0.023
2,TTAAATAATA,1.09 ± 0.16
3,TCTACGGGGT,1.46 ± 0.55
4,AAAGGGGTAG,0.9975 ± 0.0069
5,AGCTCTGCGA,1.09 ± 0.039
6,AGATGTGGTT,0.9922 ± 0.0041
7,GGGTGGATGT,1.01 ± 0.012
8,TAGCGGGATT,1.02 ± 0.033
9,AGTATTTGGT,1 ± 0.025
10,GATATTTTCG,1.01 ± 0.035
11,GGTGGGGATG,0.984 ± 0.027
12,CAGTTAATTG,1.03 ± 0.013
13,AGAGGGTTAT,0.985 ± 0.038
14,ACTCAGGTGT,3.23 ± 0.13
15,ATGGAATCAG,1.015 ± 0.01
16,TCAGTTTTAC,1.01 ± 0.052
17,AATTGCGTTG,0.979 ± 0.025
18,AATTATTCGT,1.024 ± 0.01
19,GTGAACAGCA,1.01 ± 0.025
20,AGGGGGCATT,0.98 ± 0.011
21,AAATTTAGGT,1.01 ± 0.038
22,ATGGAAGTTT,1.01 ± 0.022
23,ACCCTGGTAT,1.02 ± 0.017
24,TGGGGCCGCG,1.048 ± 0.0092
25,ACGTTCTATA,1.026 ± 0.0088
